According to patent publication US10683486B2, “Methods for producing hepatocytes” (BioLamina AB, priority 2015, dated 2020):

Key:
Assay type in all cases: cell-based, human
hESC-derived hepatocytes [1] = assay: Biliary efflux of CDFDA; details: 2 μM CDFDA for 30 minutes; versus the MG substrate
Experimental: To determine whether these cells were capable of biliary efflux, cells were treated with 5(6)-carboxy-2′,7′-dichlorofluorescein diacetate (CDFDA), which was metabolised to fluorescent CDF and effluxed by multidrug resistance associated protein 2 (MRP2). hESC-derived hepatocytes were incubated with 2 μM of 5(6)-carboxy-2′,7′dichlorofluorescein diacetate (CDFDA) for 30 minutes. Cultures were then washed with ice-cold PBS containing calcium and magnesium. Cells were either collected for imaging or retained for quantification of efflux. For fluorescent quantification, hepatic maturation was replaced and cells incubated at 37 degrees Celsius for 30 minutes. The efflux of CDFDA from cells into media was measured by fluorescence spectroscopy at […] using a FLUOStar Omega multi-mode microplate reader.
The results are shown in the bottom row (C) of photomicrographs.

MAN12 cells = assay: Immunostaining of ALB and CYP3A in MAN12 derived cells (Example 4); details: MAN12, Day 24 of differentiation, Cameron protocol
Experimental: (§1) MAN12 cells, a GMP grade cell line, were plated on three different substrates. The first substrate was Matrigel® (MG), and served as a control. The second substrate was coated with 5 micrograms per square centimeter (μg/cm^2) of laminin-521 (LN-521). […] The cells were then differentiated according to the Cameron protocol.
FIG. 14 is a set of 15 photomicrographs at 10× magnification, organized into three columns and five rows, taken on Day 24 of differentiation. […] Row A is a set of phase contrast images of morphology. The scale bars are 200 μm. Row B is a set of photomicrographs showing the immunofluorescent staining of albumin (ALB) on the three different matrices. Row C is a set of photomicrographs showing the immunofluorescent staining of cytochrome P450 3A (CYP3A). Row D is a set of photomicrographs showing the immunofluorescent staining of multidrug resistance protein 1 (MRP1). Row E is a set of photomicrographs showing immunoglobulin G control staining for sheep, mouse, and rabbit antisera.
FIG. 15 is a set of four bar graphs. The first row of two graphs show hepatocyte protein secretion for alpha fetoprotein and albumin as analyzed by ELISA on day 24 of differentiation (n=3). No significant differences were observed across the three matrices. The second row of two graphs show the metabolic function of CYP p450 activity on days 18, 20, and 24 for CYP1A2 and CYP3A activity.

[2] = system: MAN11 derived hepatocytes; assay: Protein secretion (ELISA) and CYP p450 activity of MAN11 derived hepatocytes; details: day 18, n=3, versus MG
Experimental: as §1, with “MAN11 cells, another” for “MAN12 cells, a”, “MAN11 cells, another GMP grade” for “MAN12 cells, a GMP grade”
FIG. 17 is a set of four bar graphs. […] The second row of two graphs show the metabolic function of CYP p450 activity on day 18 for CYP1A2 and CYP3A activity. No significant differences were observed across the three matrices.
Looking at both Example 4 and Example 5, the MAN11 and MAN12 cells differentiated efficiently on all three substrates, with the majority of cells (>80%) expressing albumin and CYP3A, as detected by immunostaining.

[3] = system: stem-cell derived hepatocytes; assay: Phase contrast morphology and MRP1/HNF4a co-immunostaining (functional organization); details: day 24
Excerpt: FIG. 8 is a set of nine photomicrographs from day 24 of differentiation.
The phase contrast images also indicated hepatocytes were arranged in lobule-like structures within the culture dish, reminiscent of regenerating liver.
Around these lobule structures, positive staining for MRP-1, an important basal membrane marker, was detected.

hESC-derived hepatocytes [4] = assay: Immunostaining of hepatocyte markers and cytochrome P450 expression (hepatocyte maturation)
Experimental: Differentiation was initiated at 40% confluence, by replacing serum-free medium mTESR1 (Stem Cell Technologies) with endoderm differentiation medium—RPMI 1640 containing 1×B27 (Life Technologies), 100 ng/mL Activin A (PeproTech) and 50 ng/mL Wnt3a (R&D). The medium was changed every 24 hours, for 72 hours. On day 4, endoderm differentiation medium was replaced with hepatoblast differentiation medium, and this was renewed every second day for a further five days. The medium consisted of KO-DMEM (Life Technologies), Serum Replacement (Life Technologies), 0.5% Glutamax (Life Technologies), 1% non-essential amino acids (Life Technologies), 0.2% β-mercaptoethanol (Life Technologies) and 1% dimethyl sulofxide (Sigma) for 5 days. At Day 9, differentiating cells were cultured in hepatocyte maturation medium HepatoZYME (Life Technologies) containing 1% Glutamax (Life Technologies), supplemented with 10 ng/mL hepatocyte growth factor (Peprotech) and 20 ng/mL oncostatin m (Peprotech).
Immunocytochemistry analysis was subsequently performed on hESC-derived hepatocytes. Cell cultures were fixed in 100% ice-cold methanol at −20 degrees Celsius for 30 minutes, and adjacent cells were pre-washed twice with PBS buffer at room temperature. Cell monolayers were blocked with 0.1% PBS-Tween solution containing 10% bovine serum albumin for 1 hour. Subsequently, the monolayers were incubated with primary antibodies diluted in PBS-0.1% Tween/1% BSA at 4 degrees Celsius overnight. After 24 hours, the primary antibodies were removed and the fixed monolayers were washed three times with PBS-0.1% Tween/1% BSA. Cells were incubated with appropriate secondary antibodies diluted in PBS-0.1% Tween/1% BSA for one hour at room temperature and washed with three times with PBS. Cultures were then mounted with PermaFluor™ Aqueous Mounting Medium and counterstained with NucBlue Hoescht 33342. The cells were imaged with the Zeiss Axio Observer Z1 microscope with LD PlanNeoFluar objective lenses, and a Zeiss AxioCamMR3 camera was used for image acquisition. The images were processed through Zeiss Axiovision SE 64 Rel 4.8 and analyzed using Zeiss Axiovision version 4.9.1.0. The percentage of positive cells and standard deviation was estimated from at least five random fields of view.
Post-hepatoblast specification, cell cultures were differentiated toward hepatocytes. Hepatocyte specification was assessed by immunostaining for albumin (ALB), E-cadherin (E CAD), cellular proliferation marker (Ki67), cytochrome p450 2D6 (CYP2D6), and cytochrome p450 3A4 (CYP3A4).
FIG. 5 is a set of nine photomicrographs of hepatic cells on day 18 of differentiation.
Given that cell organisation and cell division are important factors in hepatocyte function, hepatocyte metabolic capacity in vitro was studied. Stem cell derived hepatocytes were first examined for cytochrome P450 expression using well characterised antisera. CYP3A and CYP1A2 activity were measured from days 16-26 using pGlo technology. CYP activity was expressed as relative light units (RLU) per milliliter of media per milligram of protein. Levels of significance were measured by student t-test.
FIG. 6 is a set of six photomicrographs and two bar graphs of gene expression in hepatic cells.

## LN-521: substrate coated with 5 μg/cm^2 of laminin-521, the protein formed by joining α5, β2 and γ1 chains
hESC-derived hepatocytes [1]
  biliary efflux: more active biliary efflux
MAN12 cells
  ALB, percentage of positive cells and standard deviation: 83.3% ± 8.5
  CYP3A, percentage of positive cells and standard deviation: 81.5% ± 8.6
[2]
  Albumin secretion: signicantly increased
  alpha fetoprotein (AFP) secretion: significant reduction
[2]; listed as LN-512
  alpha fetoprotein (AFP) secretion: significantly reduced foetal protein secretion
[3]
  MRP-1 staining, hepatocyte organisation: exhibited networks of organised hepatocytes in vitro
hESC-derived hepatocytes [4]; day 18 of differentiation
  Albumin, percentage of positive cells and standard deviation: 89.5% ± 8.7
  E CAD, percentage of positive cells and standard deviation: 67.4% ± 4.4
hESC-derived hepatocytes [4]; day 18 of differentiation, proliferation marker
  Ki67, percentage of positive cells and standard deviation: 17.4% ± 6.2
hESC-derived hepatocytes [4]; immunostaining, FIG. 6
  CYP2D6, percentage of positive cells and standard deviation: 85.7% ± 5.7
  CYP3A, percentage of positive cells and standard deviation: 91.3% ± 3.7
